T1: human LEPR FNIII-MMH (human, UniProt P48357 636-839, limits assumed)
T1 construct: domain: FNIII; Transiently expressed, captured from supernatant on anti-myc beads
T1 sequence (looked up): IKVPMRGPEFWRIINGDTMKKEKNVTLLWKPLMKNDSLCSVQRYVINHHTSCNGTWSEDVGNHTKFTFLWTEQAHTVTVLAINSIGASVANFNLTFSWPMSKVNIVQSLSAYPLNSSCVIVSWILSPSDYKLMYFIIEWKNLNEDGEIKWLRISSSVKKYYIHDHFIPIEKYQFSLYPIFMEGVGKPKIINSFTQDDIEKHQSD

T2: human LEPR CRH1 (D1,D2,D3)-MMH (human, UniProt P48357 22-427, limits assumed)
T2 construct: domain: CRH1-Ig (D1,D2,D3); Transiently expressed, captured from supernatant on anti-myc beads; also called CRH1-Ig (D1, D2, D3)
T2 sequence (looked up): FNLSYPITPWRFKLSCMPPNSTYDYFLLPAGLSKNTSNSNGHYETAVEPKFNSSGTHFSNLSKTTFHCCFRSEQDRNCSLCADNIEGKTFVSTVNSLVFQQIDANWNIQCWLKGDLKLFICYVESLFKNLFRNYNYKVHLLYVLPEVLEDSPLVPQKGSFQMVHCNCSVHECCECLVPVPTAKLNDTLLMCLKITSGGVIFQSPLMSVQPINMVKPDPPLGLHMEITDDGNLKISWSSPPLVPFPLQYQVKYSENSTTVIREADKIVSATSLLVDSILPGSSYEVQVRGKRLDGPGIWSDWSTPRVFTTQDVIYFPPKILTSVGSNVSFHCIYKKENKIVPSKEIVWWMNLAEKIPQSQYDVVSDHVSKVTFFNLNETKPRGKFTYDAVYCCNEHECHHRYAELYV

T3: human LEPR Ig-CRH2-FNIII-MMH (human, UniProt P48357 330-839, limits assumed)
T3 construct: domain: Ig-CRH2-FNIII; Transiently expressed, captured from supernatant on anti-myc beads
T3 sequence (looked up): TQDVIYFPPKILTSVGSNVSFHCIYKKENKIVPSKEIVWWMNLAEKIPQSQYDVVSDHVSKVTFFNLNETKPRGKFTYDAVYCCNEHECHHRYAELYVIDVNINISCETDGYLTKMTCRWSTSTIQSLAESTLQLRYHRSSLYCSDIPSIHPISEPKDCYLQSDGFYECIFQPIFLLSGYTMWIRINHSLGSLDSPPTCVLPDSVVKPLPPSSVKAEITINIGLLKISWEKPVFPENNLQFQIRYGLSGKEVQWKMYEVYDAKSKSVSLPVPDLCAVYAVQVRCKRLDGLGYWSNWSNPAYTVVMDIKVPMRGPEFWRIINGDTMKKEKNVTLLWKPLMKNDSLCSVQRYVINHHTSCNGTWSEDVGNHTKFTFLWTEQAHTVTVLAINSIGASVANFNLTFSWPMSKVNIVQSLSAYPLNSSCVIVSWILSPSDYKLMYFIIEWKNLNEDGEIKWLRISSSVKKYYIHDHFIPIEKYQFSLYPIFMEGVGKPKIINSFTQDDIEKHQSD

T4: human LEPR CRH1 (D1)-MMH (human, UniProt P48357 22-229, limits assumed)
T4 construct: domain: CRH1 (D1); Transiently expressed, captured from supernatant on anti-myc beads
T4 sequence (looked up): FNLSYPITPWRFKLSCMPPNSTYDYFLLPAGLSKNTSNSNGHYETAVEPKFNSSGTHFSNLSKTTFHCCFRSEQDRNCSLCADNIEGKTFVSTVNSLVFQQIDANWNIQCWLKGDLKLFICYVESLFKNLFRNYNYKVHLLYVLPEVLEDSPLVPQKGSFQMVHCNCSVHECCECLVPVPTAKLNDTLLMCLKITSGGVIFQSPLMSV

T5: human LEPR CRH1-Ig (D2,D3)-MMH (human, UniProt P48357 230-427, limits assumed)
T5 construct: domain: CRH1-Ig (D2,D3); Transiently expressed, captured from supernatant on anti-myc beads
T5 sequence (looked up): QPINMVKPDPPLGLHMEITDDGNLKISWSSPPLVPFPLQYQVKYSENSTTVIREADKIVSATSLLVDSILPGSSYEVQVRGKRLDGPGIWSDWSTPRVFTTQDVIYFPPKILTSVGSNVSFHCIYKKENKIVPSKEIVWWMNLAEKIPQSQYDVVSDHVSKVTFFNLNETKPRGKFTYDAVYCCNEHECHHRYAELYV

T6: human LEPR Ig (D3)-MMH (human, UniProt P48357 340-427, limits assumed)
T6 construct: domain: Ig (D3); Transiently expressed, captured from supernatant on anti-myc beads
T6 sequence (looked up): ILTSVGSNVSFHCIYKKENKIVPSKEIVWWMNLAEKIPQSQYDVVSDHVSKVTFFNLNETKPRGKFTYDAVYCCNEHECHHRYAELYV


Columns and labels:
Assay in all cases: Luminex, myc-captured LEPR protein on beads, Ab 5 µg/mL
human LEPR FNIII-MMH = target: T1, human LEPR FNIII-MMH
Method: (§1) Aliquots of microspheres with immobilized anti-myc monoclonal antibodies, prepared as described above, were added individually to 1 mL of the each of these protein supernatants. The microspheres were gently mixed, incubated for two hours at 25° C., washed twice with 1 mL of DBPS, centrifuged to remove the supernatant and finally resuspended in 1 mL of DPBS buffer. Forty eight μL of anti-myc IgG coupled microspheres from individual reactions with full length human LEPR and with each of the human LEPR domain proteins were withdrawn and mixed together in 3.6 mL of PBS+20 mg/mL BSA+0.05% sodium azide (blocking buffer).
(§2) From this mixed pool, 75 μL of microspheres were plated per well on a 96 well filter plate (Millipore, Cat. No: MSBVN1250) and mixed with 25 μL of individual anti-human LEPR monoclonal antibodies (0.5 or 5 μg/mL), incubated for two hours at 25° C. and then washed twice with 200 μL of DPBS with 0.05% Tween 20 (washing buffer). […] After 30 minutes, the samples were washed twice with 200 μL of washing buffer and resuspended in 150 μL of wash buffer. The Median Fluorescence intensity (MFI) of the microspheres was measured in a Luminex Analyzer.

[1] = target: T2, human LEPR CRH1 (D1,D2,D3)-MMH
Method: as §1, §2

[2] = target: T3, human LEPR Ig-CRH2-FNIII-MMH
Method: as §1, §2

[3] = target: T7, recombinant human LEPR extracellular domain expressed with a C-terminal myc-myc-hexahistidine tag (human, UniProt P48357 22-839)
T7 construct: Monomeric construct; also called hLEPR.MMH; hLEPR-MMH
Method: as §1, §2

human LEPR CRH1 (D1)-MMH = target: T4, human LEPR CRH1 (D1)-MMH
Method: as §1, §2

[4] = target: T5, human LEPR CRH1-Ig (D2,D3)-MMH
Method: as §1, §2

human LEPR Ig (D3)-MMH = target: T6, human LEPR Ig (D3)-MMH
Method: as §1, §2

Binder | Luminex MFI (human LEPR FNIII-MMH) | Luminex MFI [1] | Luminex MFI [2] | Luminex MFI [3] | Luminex MFI (human LEPR CRH1 (D1)-MMH) | Luminex MFI [4] | Luminex MFI (human LEPR Ig (D3)-MMH)
H4H18466P2 (antibody, human IgG4, V domains shown, H4H prefix: human IgG4 Fc) VH: EVQLVESGGGLVQPGGSLRLSCTASGFTFSSYGLHWVRQAPGKGLEYVSSINHNGGSKYYADSVKGRFTISRDNSKNTLFLQMGSLKTEDMAVYYCARDLFLEWLFHGFDIWGQGTMVTVSS VL: not shown | 457 MFI |  | 11300 MFI | 5070 MFI | 15 MFI | 76 MFI | 26 MFI
H4H18440P2 (antibody, human IgG4, V domains shown, H4H prefix: human IgG4 Fc) VH: QVQLVESGGGMVKPGGSLRLSCAASGFTFSDYYMSWIRQAPGKGLEWISHISITGSTIYYADSVKGRFTISRDNAKNSLYLEMNRLRDEDTAVYYCTRDEPDIVLVRYGMDVWGQGTTVTVSS VL: not shown | 10 MFI | 8240 MFI | 32 MFI | 7040 MFI | 8 MFI | 9160 MFI | 14 MFI
H4H18462P2 (antibody, human IgG4, V domains shown, H4H prefix: human IgG4 Fc) VH: EVQLVESGGDLVQPGRSLRLSCAASGFTFSSFAMSWVRQAPGRGLEWVSSLSDSGDNTYYADSVKGRFTISRDNSKNTLYLQMNNLRAEDTAVYYCAKDLFSGWLFHGFDVWGQGTMVTVSS VL: not shown | 581 MFI | 3960 MFI | 14900 MFI | 5850 MFI | 5380 MFI | 47 MFI | 21 MFI
H4H17322P2 (antibody, human IgG4, V domains shown, H4H prefix: human IgG4 Fc) VH: QLQLQESGPGLVKPSETLSLTCTVSGASISSSRFYGGWIRQPPGKGLEWIGDIYYSGNTYYNPSLQSRVTISVDTSKNQFSLKLSSVTAADTAVYYCARHLMITFGGLIVEGFDIWGQGTMVTVSS VL: not shown | 23 MFI | 31 MFI | 15100 MFI | 8930 MFI | 14 MFI | 58 MFI | 26 MFI

Further lines, results first:

Luminex MFI (human LEPR FNIII-MMH) | Luminex MFI [1] | Luminex MFI [2] | Luminex MFI [3] | Luminex MFI (human LEPR CRH1 (D1)-MMH) | Luminex MFI [4] | Luminex MFI (human LEPR Ig (D3)-MMH) | Binder
23 MFI | 5560 MFI | 15100 MFI | 9380 MFI | 13 MFI | 3740 MFI |  | H4H18464P2 (antibody, human IgG4, V domains shown, H4H prefix: human IgG4 Fc) VH: QVQLVQSGPEVKKPGASVKVSCKGSGYTFSWYGISWIRQAPGHGLEWMGWISASSGNTRFAQKVQGRLTMTTDTSTSTAYMELRSLRSDDTAVYYCARTGTRPFDYWGQGTLVTVSS VL: not shown
1190 MFI | 31 MFI | 13200 MFI | 7500 MFI | 13 MFI | 43 MFI | 18 MFI | H4H18457P2 (antibody, human IgG4, V domains shown, H4H prefix: human IgG4 Fc) VH: EVQLVESGGSVVRPGESLRLSCAASGFTFDDYGMSWVRQAPGKGLEWVSGISWNGGITVYADSVKGRFTVSRDNAKNSLYLQMNSLRAEDTALYHCARARYGGADYWGQGTLVTVSS VL: not shown
1590 MFI | 34 MFI | 15600 MFI | 8640 MFI | 21 MFI | 43 MFI | 26 MFI | H4H18437P2 (antibody, human IgG4, V domains shown, H4H prefix: human IgG4 Fc) VH: QVQLVESGGGVVQPGRSLRLSCAASGFTFSSYGIHWVRQAPGKGLEWVAVISYDGNNKYYADSVKGRFTISRDNSKNTLYLQMNSLRAEDTAVYYCAKDLFLEWLFHGMGVWGQGTTVTVSS VL: not shown
13 MFI | 8020 MFI | 43 MFI | 5470 MFI | 11 MFI | 10000 MFI | 18 MFI | H4H18439P2 (antibody, human IgG4, V domains shown, H4H prefix: human IgG4 Fc) VH: QLQLQESGPGLVKPSETLSLTCIVSGGDITSSSYYWNWIRQPPGKGLEWIGNIYYSGSTNYNPSLKSRVTISIDTSKSQFSLKLRSVTAADTAVYYCARLLRYFDWSKGYLDYWGQGTLVTVSS VL: not shown
